Biological target: Split-CFTR front half (N-term-TMD1-NBD1; aa 1-634) (UniProt P13569 1-634)
Assay: proximity ligation

Sequence of Split-CFTR front half (N-term-TMD1-NBD1; aa 1-634) (P13569 1-634): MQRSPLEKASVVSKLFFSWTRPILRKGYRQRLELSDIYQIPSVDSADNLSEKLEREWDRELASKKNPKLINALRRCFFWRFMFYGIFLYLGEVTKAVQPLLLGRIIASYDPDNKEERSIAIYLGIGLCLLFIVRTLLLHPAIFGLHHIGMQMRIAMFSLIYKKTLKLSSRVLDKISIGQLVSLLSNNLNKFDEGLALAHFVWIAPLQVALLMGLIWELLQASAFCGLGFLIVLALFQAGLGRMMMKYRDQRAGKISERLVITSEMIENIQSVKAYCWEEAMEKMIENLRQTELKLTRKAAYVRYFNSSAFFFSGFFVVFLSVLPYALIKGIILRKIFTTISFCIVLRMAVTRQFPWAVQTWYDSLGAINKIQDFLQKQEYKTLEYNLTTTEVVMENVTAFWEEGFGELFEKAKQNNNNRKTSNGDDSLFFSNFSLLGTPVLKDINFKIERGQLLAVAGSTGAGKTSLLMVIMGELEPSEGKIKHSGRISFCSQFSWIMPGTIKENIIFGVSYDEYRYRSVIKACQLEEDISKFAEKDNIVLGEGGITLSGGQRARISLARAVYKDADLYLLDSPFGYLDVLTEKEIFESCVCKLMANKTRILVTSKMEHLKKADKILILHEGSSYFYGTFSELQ

CTCF of PLA signal (after PKA stimulation): 1.4
CTCF of PLA signal (after PKC + PKA stimulation): 5.28
CTCF of PLA signal (after PKC stimulation): 5.54
CTCF of PLA signal (basal): 0.33
B1: CFTR R-region R-6CA (S641A/T682A/S707A/S790A/T791A/S809A; aa 635-836) (domain or fragment, UniProt P13569 635-836, looked up)
chain: NLQPDFASKLMGCDSFDQFSAERRNSILTETLHRFSLEGDAPVSWTEAKKQSFKQTGEFGEKRKNSILNPINAIRKFSIVQKTPLQMNGIEEDSDEPLERRLSLVPDSEQGEAILPRISVISTGPTLQARRRQSVLNLMTHSVNQGQNIHRKTTAAARKVSLAPQANLTELDIYARRLSQETGLEISEEINEEDLKECFFDD

Reference: paper PMC6996395 (FASEB bioAdvances, 2019)
